Experimental data as given in article PMC4847750 (Nature structural & molecular biology, 2015).

B1: Spy (WT Spy), ATP-independent periplasmic chaperone (natural protein, Escherichia coli, UniProt P77754 24-161, looked up)
chain: ADTTTAAPADAKPMMHHKGKFGPHQDMMFKDLNLTDAQKQQIREIMKGQRDQMKRPPLEERRAMHDIIASDTFDKVKAEAQIAKMEEQRKANMLAHMETQNKIYNILTPEQKKQFNANFEKRLTERPAAKGKMPATAE
B2: Im7-L18A L19A L37A (mimic of unfolded Im7, Im7U) (natural protein, UniProt Q03708 1-87, looked up)
chain: MELKNSISDYTEAEFVQAAKEIEKENVAATDDVLDVALEHFVKITEHPDGTDLIYYPSDNRDDSPEGIVKEIKEWRAANGKPGFKQG
B3: Im7-L53A I54A (mimic of the Im7 folding intermediate, Im7I) (natural protein, UniProt Q03708 1-87, looked up)
chain: MELKNSISDYTEAEFVQLLKEIEKENVAATDDVLDVLLEHFVKITEHPDGTDAAYYPSDNRDDSPEGIVKEIKEWRAANGKPGFKQG
B4: Immunity protein 7, wild type (Im7-WT) (natural protein, UniProt Q03708 1-87, looked up)
chain: MELKNSISDYTEAEFVQLLKEIEKENVAATDDVLDVLLEHFVKITEHPDGTDLIYYPSDNRDDSPEGIVKEIKEWRAANGKPGFKQG

Assays:
[1] = molecular target: B4; assay: ITC
[2] = molecular target: B3; assay: ITC
[3] = molecular target: B2; assay: ITC
[4] = molecular target: B1; assay: ITC
[5] = molecular target: B1; assay: stopped-flow fluorescence

With B1 the “stoichiometry N” value [1] was 1 Spy dimer per Im7, the “stoichiometry N” value [2] was 1 Spy dimer per Im7 and the “stoichiometry N” value [3] was 1 Spy dimer per Im7.

With B2 the Kd [4] was 10.4 µM, the koff [5] was 210 s⁻¹ and the kon [5] was 1.3e+07 M⁻¹ s⁻¹.

For B3, the Kd [4] was 3.5 µM.

For B4, the Kd [4] was 20.5 µM.
